Results from patent publication US20200407433A1 (REMD BIOTHERAPEUTICS, published 2020).

T1: human Calcitonin Gene-Related Peptide (CGRP) (human, not fully specified)
T1 peptide: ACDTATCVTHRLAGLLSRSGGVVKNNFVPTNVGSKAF


Assays:
[1] = biological target: T1, human Calcitonin Gene-Related Peptide …; experiment: cell-based or functional assay
[2] = biological target: T1, human Calcitonin Gene-Related Peptide …; experiment: SPR Biacore 8k; antibody amine-coupled to chip, CGRP as analyte
Protocol: The recombinant IgGs secreted to the medium and were purified using protein A affinity chromatography. Evaluating from the SDS-PAGE, the purity of humanized IgGs were all over 90%. The affinities of purified antibodies binding to CGRP were determined using a Surface Plasmon Resonance (SPR) biosensor, Biacore 8k. Antibodies were immobilized on the sensor chip through amine coupling method. Antigen CGRP was used as the analyte. The data of dissociation (kd) and association (ka) rate constants were obtained using Biacore 8k evaluation software. The equilibrium dissociation constants (KD) were calculated from the ratio of kd over ka.

[3] = biological target: T2, Rodent CGRP (rodent (murine)); experiment: ELISA, rodent CGRP binding
T2 construct: also called murine CGRP

[4] = biological target: T1, human Calcitonin Gene-Related Peptide …; experiment: cell-based or functional assay
[5] = biological target: T1, human Calcitonin Gene-Related Peptide …; experiment: ELISA, human CGRP binding
[6] = biological target: T1, human Calcitonin Gene-Related Peptide …; experiment: SPR Biacore T200; antibody amine-coupled to chip, CGRP as analyte
Protocol: The binding affinity between the chimeric IgG4 to antigen CGRP was determined using a Surface Plasmon Resonance (SPR) biosensor, Biacore T200 (GE Healthcare). 30B8G9B11 (“A3”) and chimeric IgG4 were each immobilized on the sensor chip through an amine coupling method. Antigen CGRP protein was used as analyte. The data of dissociation (kd) and association (kₐ) rate constants were obtained using Biacore T200 evaluation software. The equilibrium dissociation constants (KD) were calculated from the ratio of kd over kₐ.

T2 sequence (Q99JA0 83-119): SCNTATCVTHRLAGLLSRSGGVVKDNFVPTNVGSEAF

| SK-N-MC IC50 (pM) [1] | Kd [2] | koff [2] | kon [2] | EC50 [3] | SK-N-MC CGRP IC50 (pM) [4] | EC50 [5] | Kd [6] | koff [6] | kon [6] | Binder |
| --- | --- | --- | --- | --- | --- | --- | --- | --- | --- | --- |
| 49.2 pM | 1.37 pM | 5.79e-06 s⁻¹ | 4.23e+06 M⁻¹ s⁻¹ | – | – | – | – | – | – | REMD 128 (antibody, human IgG4 S228P, kappa, V domains shown, Humanized full-length IgG (IgG4 constant region, kappa); also called IgG 10 (H3/L2); 10 (H3/L2)) VH: QVQLVQSGAEVVKPGASVKVSCKASGYTFTDYYMNWVKQAPGQGLEWIGDVNPNNGGTHYNQKFKGRVTLTVDTSISTAYMELSRLRSDDTAVYYCASITIVPVYFDFWGQGTLVTVSS VL: DIQLTQSPSFLSASVGDRVTITCKASQNVGPNVAWYRQKPGKAPKALIYSASYRYSGVPSRFSGSGSGTEFTLTISSLQPEDFATYICQQYNYYPYTFGQGTKLEIKR |
| 38.9 pM | 1.57 pM | 7.61e-06 s⁻¹ | 4.86e+06 M⁻¹ s⁻¹ | – | – | – | – | – | – | REMD 128.1 (antibody, human IgG4 S228P, kappa, V domains shown, Humanized full-length IgG (IgG4 constant region, kappa); also called IgG 11 (H3/L3); 11 (H3/L3)) VH: QVQLVQSGAEVVKPGASVKVSCKASGYTFTDYYMNWVKQAPGQGLEWIGDVNPNNGGTHYNQKFKGRVTLTVDTSISTAYMELSRLRSDDTAVYYCASITIVPVYFDFWGQGTLVTVSS VL: DIQLTQSPSFLSTSVGDRVTITCKASQNVGPNVAWYRQKPGKSPKALIYSASYRYSGVPSRFSGSGSGTEFTLTISSLQPEDFATYICQQYNYYPYTFGQGTKLEIKR |
| 60.4 pM | 1.52 pM | 7.57e-06 s⁻¹ | 4.97e+06 M⁻¹ s⁻¹ | – | – | – | – | – | – | REMD 128.2 (antibody, human IgG4 S228P, kappa, V domains shown, Humanized full-length IgG (IgG4 constant region, kappa); also called IgG 15 (H4/L3); 15 (H4/L3)) VH: QVQLVQSGAEVVKPGASVKISCKASGYTFTDYYMNWVKQAPGQGLEWIGDVNPNNGGTHYNQKFKGRATLTVDTSISTAYMELSRLRSDDTAVYYCASITIVPVYFDFWGQGTLLTVSS VL: DIQLTQSPSFLSTSVGDRVTITCKASQNVGPNVAWYRQKPGKSPKALIYSASYRYSGVPSRFSGSGSGTEFTLTISSLQPEDFATYICQQYNYYPYTFGQGTKLEIKR |
| 59.8 pM | 1.54 pM | 7.01e-06 s⁻¹ | 4.55e+06 M⁻¹ s⁻¹ | – | – | – | – | – | – | REMD 128.3 (antibody, human IgG4 S228P, kappa, V domains shown, Humanized full-length IgG (IgG4 constant region, kappa); also called IgG 14 (H4/L2); 14 (H4/L2)) VH: QVQLVQSGAEVVKPGASVKISCKASGYTFTDYYMNWVKQAPGQGLEWIGDVNPNNGGTHYNQKFKGRATLTVDTSISTAYMELSRLRSDDTAVYYCASITIVPVYFDFWGQGTLLTVSS VL: DIQLTQSPSFLSASVGDRVTITCKASQNVGPNVAWYRQKPGKAPKALIYSASYRYSGVPSRFSGSGSGTEFTLTISSLQPEDFATYICQQYNYYPYTFGQGTKLEIKR |
| 152 pM | – | – | – | 296 pM | 152 pM | 70 pM | 2.92 pM | 1.56e-05 s⁻¹ | 5.33e+06 M⁻¹ s⁻¹ | murine mAb 30B8G9B11 (antibody, mouse IgG2a, V domains shown, Murine IgG2a, kappa; also called A3; Murine A3) VH: EVQLQQSGPELVKPGASVKISCKASGYTFTDYYMNWVKQSHGKSLEWIGDVNPNNGGTHYNQKFKGKATLTVDKSSSTAYMELRSLTSEDSAVYYCASITIVPVYFDFWGQGTTLTVSS VL: DIVMTQSQKFMSTSVGDRVSVTCKASQNVGPNVAWYRQKPGQSPKALIYSASYRYSGVPDRFTGSGSGTDFTLTISNVQSEDLADYICQQYNYYPYTFGGGTKLEIK |
| 152 pM | 3.53 pM | 1.19e-05 s⁻¹ | 3.37e+06 M⁻¹ s⁻¹ | – | – | – | 2.4 pM | 1.51e-05 s⁻¹ | 6.28e+06 M⁻¹ s⁻¹ | murine-human chimeric IgG4 derived from murine antibody A3 (antibody, V domains shown, also called chimeric antibody) VH: EVQLQQSGPELVKPGASVKISCKASGYTFTDYYMNWVKQSHGKSLEWIGDVNPNNGGTHYNQKFKGKATLTVDKSSSTAYMELRSLTSEDSAVYYCASITIVPVYFDFWGQGTTLTVSS VL: DIVMTQSQKFMSTSVGDRVSVTCKASQNVGPNVAWYRQKPGQSPKALIYSASYRYSGVPDRFTGSGSGTDFTLTISNVQSEDLADYICQQYNYYPYTFGGGTKLEIKR |
| – | – | – | – | 328 pM | 195 pM | 80 pM | – | – | – | murine mAb 24G7B10G2 (antibody, mouse IgG2a, V domains shown, Murine IgG2a, kappa; also called A2; 24G7B10G2 ("A2")) VH: EVQLLQSGPELMKPGTSVKISCKASGYTFTDYYMNWVKQSHGKSLEWIGDVNPNNGDTTYNQKFKGKATLTIDKSSSTAYMELRSLTSEDSAVYYCASITIVPLYFDFWGQGTTLAVSS VL: DIVMTQSQKFMSTSVGDRVSVTCKASQNVGINVAWYQQKPGQSPKALLYSASYRYSGVPDRFTGSGSGTDFTLTISNVKSGDLAEYFCQQYNTYPYTFGGGTKLEIK |
| – | – | – | – | 361 pM | 101 pM | 100 pM | – | – | – | murine mAb 6G5C8C4 (antibody, mouse IgG2a, V domains shown, Murine IgG2a, kappa; also called A1; 6G5C8C4 ("A1")) VH: EVQLQQSGPELVKPGASVKISCKASGYTFTDYYMNWVKQSHGKSLEWIGDINPNNGGTTYNQKFKGKATLTVDKSSTTAYMELRSLTSEDSAVYYCAVITIVPYYFDYWGQGTTLTVSS VL: DIVMTQSQKFMSTSVGDRVSVTCKASQNVGSNVAWYQQKPGQSPKALIYSASFRYSRVPDRFSGSGSGTDFTLTISNVQSEDLADYFCQQYNSYPYTFGAGTKLELK |
